Our source for the creatine phosphokinase (CPK) release in the heart perfusate during reperfusion and infarct size after ischemia/reperfusion in isolated rat hearts values is patent US20090081786A1, “Peptide sequences for modulation of protein kinase C” (priority 2006, published 2009).

Where only a bound is given, the exact number is not on record here.

For this assay, the target named is δ-PKC in isolated rat hearts (rat), P09215. Nature of the assay: cell-based or functional assay.
Sequence of δ-PKC in isolated rat hearts (rat), P09215 (P09215 whole entry, stated change not applied): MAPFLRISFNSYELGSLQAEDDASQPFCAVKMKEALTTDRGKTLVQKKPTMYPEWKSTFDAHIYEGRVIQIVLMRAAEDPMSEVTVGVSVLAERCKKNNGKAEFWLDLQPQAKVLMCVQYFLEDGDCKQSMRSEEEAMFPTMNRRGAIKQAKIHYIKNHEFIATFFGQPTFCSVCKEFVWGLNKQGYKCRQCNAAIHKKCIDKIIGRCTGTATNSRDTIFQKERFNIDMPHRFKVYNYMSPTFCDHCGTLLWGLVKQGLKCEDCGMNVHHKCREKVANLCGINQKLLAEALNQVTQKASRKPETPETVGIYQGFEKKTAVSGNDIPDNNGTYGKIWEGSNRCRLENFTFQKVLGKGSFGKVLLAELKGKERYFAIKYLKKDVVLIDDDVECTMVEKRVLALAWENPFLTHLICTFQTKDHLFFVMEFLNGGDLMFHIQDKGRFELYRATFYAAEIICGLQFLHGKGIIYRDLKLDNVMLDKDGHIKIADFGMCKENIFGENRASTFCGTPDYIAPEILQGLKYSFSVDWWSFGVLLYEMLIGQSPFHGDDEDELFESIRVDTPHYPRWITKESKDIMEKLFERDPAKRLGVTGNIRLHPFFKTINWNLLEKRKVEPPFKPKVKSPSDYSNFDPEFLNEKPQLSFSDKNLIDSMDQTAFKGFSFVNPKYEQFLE

B1: annexin V-derived peptide pAnxV (annexin V residues 157-164) conjugated to TAT47-57 carrier peptide (peptide)
peptide: LQANRDPD
chain: YGKKRRQRRR
modifications: not checked
In the case of B1, the creatine phosphokinase (CPK) release in the heart perfusate during reperfusion is above 50 % reduction and the infarct size after ischemia/reperfusion in isolated rat hearts turned out to be 70 % reduction.
